Laboratory results: patent US20220153803

phospho-Thr^5-glucagon, sequence (chain, as listed by the source): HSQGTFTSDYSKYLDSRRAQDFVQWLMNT

bovine alkaline phosphatase
Dephosphorylation T50 (mins.) pH 7.4 (phospho-Thr^5-glucagon): 85.9 min | Dephosphorylation T50 (mins.) pH 7.4 (phospho-Ser^8-glucagon): 94.9 min
